Data from publication PMC10859935, “Surface Charge Can Modulate Phase Separation of Multidomain Proteins” (Journal of the American Chemical Society, 2024).

What was measured:
[1] = target: polySIM (protein consisting of 10 SIMs derived from the PIASx protein)
[2] = target: small ubiquitin-like modifier protein 1 (SUMO1) domain, wild type (UniProt P63165); assay: static light scattering (second virial coefficient A2); pH 8.0; 25 °C; 20 mM HEPES, 150 mM KCl, 1 mM MgCl2, 1 mM DTT, 1 mM EGTA; A2 from the slope of scattering intensity versus concentration
[3] = target: small ubiquitin-like modifier protein 1 (SUMO1) domain, wild type (UniProt P63165); assay: static light scattering (second virial coefficient A2); pH 6.5; 25 °C; A2 from the slope of scattering intensity versus mass concentration; weak self-association of a single domain
[4] = target: T1, small ubiquitin-like modifier protein 1 (SUMO1) domain, wild type (UniProt P63165 1-97); assay: ITC; 50–100 μM SIM peptide in the cell, SUMO in the syringe; 25 °C; 20 mM HEPES (pH 7.0 or 8.0) or 20 mM MES (pH 6.5), 150 mM KCl, 1 mM MgCl2, 1 mM DTT, 1 mM EGTA; 1:1 binding model; conditions: both partners purified
T1 construct: SUMO1, single domain; also called WT SUMO; WT SUMO1; source: BL21(DE3) T1R cells, purified (Ni-NTA, TEV cleavage, Source15Q, Superdex200); not shown: His8, N-terminal, cleaved
T1 sequence (P63165 1-97): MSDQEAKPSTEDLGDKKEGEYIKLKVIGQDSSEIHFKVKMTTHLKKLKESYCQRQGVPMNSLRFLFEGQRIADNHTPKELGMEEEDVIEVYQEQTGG

## polySUMO (synthetic protein consisting of five SUMO domains)
[1]
  phase-separation threshold (module concentration, equimolar modules) by turbidity at 340 nm, pH 6: 75 μM
  phase-separation threshold (module concentration, equimolar modules) by turbidity at 340 nm, pH 6.5: 100 μM
  phase-separation threshold (module concentration, equimolar modules) by turbidity at 340 nm, pH 7: 150 μM
  phase-separation threshold (module concentration, equimolar modules) by turbidity at 340 nm, pH 8: 300 μM

## small ubiquitin-like modifier protein 1 (SUMO1) domain, wild type (from UniProt P63165 1-97) (natural protein)
[2]
  A2 (second virial coefficient): 0.00012 mol mL g^–2
[3]
  A2 (second virial coefficient): -0.00012 mol mL g^–2

B1: SUMO interaction motif (SIM) peptide derived from the PIASx protein (peptide)
chain: KVDVIDLTIESSSDEEEDPPAKR
[4]
  Kd: 15 to 20 µM
